Data on five molecules can be found in US20210290759A1 (BRAVOVAX, published 2021).

The target of test [1] is TLR-5 receptor on THP-1 cells (UniProt O60602). Briefly: cell-based or functional assay.
Test [2] has as its target TLR-5 receptor on THP-1 cells (UniProt O60602 21-858). Briefly: cell-based or functional assay.

Sequence of TLR-5 receptor on THP-1 cells (UniProt O60602) (O60602 21-858 limits assumed): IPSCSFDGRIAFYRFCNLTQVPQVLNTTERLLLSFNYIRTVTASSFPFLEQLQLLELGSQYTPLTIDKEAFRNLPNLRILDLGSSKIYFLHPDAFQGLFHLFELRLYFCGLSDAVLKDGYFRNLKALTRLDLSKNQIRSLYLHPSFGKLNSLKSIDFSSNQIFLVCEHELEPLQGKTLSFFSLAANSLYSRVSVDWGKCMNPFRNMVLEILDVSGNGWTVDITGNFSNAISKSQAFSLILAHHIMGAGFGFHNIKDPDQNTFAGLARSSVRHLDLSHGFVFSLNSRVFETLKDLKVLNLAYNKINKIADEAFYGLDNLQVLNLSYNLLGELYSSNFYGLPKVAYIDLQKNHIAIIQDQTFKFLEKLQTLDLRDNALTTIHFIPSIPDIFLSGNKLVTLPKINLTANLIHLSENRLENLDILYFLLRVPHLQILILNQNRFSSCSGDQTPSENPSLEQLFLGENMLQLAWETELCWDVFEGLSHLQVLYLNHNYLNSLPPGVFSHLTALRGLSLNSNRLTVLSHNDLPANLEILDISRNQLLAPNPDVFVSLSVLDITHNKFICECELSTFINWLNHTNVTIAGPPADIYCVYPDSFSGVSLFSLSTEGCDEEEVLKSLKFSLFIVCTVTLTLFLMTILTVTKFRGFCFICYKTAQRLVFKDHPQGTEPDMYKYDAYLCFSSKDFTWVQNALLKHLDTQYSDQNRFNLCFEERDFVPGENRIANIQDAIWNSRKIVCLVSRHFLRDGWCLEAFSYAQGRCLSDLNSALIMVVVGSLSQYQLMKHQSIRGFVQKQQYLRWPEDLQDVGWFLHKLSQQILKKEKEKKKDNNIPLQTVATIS
Sequence of TLR-5 receptor on THP-1 cells (UniProt O60602 21-858) (O60602 21-858 limits assumed): as above

Consider “endotoxin-free flagellin protein (Alpha Diagnostic) (ligand)”, for which, in test [1], the IL-8 content in THP-1 supernatant, stimulation at 2.5 ug/mL was 19.6 ng; the In vitro relative potency (%), IL-8 was determined as 100%; the In vitro relative potency (%), TNF-α came to 100%; the TNF-α content in THP-1 supernatant, stimulation at 2.5 ug/mL came out at 969 pg.

B1: ASF fusion protein (N-terminal D0-D1-gE-C-terminal D1-D0, LT2) (other)
chain: AQVINTNSLSLLTQNNLNKSQSALGTAIERLSSGLRINSAKDDAAGQAIANRFTANIKGLTQASRNANDGISIAQTTEGALNEINNNLQRVRELAVQSANSTNSQSDLDSIQAEITQRLNEIDRVSGQTQFNGVKVLAQDNTLTIQVGANDGETIDIDLKQINSQTLGLDTLNVQGGGGSGGGGSGGGGSSVLRYDDFHIDEDKLDTNSVYEPYYHSDHAESSWVNRGESSRKAYDHNSPYIWPRNDYDGFLENAHEHHGVYNQGRGIDSGERLMQPTQMSAQEDLGDDTGIHVIPTLNGDDRHKIVNVDQRQYGDVFKGDLNPKPQGQRLIEVSVEENHPFTLRAPIQRIYGVRYTETWSFLPSLTCTGDAAPAIQHICLKHTTCFQDVVVDVDCAENTKEDQLAEISYRFQGKKEADQPWIVVNTSTLFDELELDPPEIEPGVLKVLRTEKQYLGVYIWNMRGSDGTSTYATFLVTWKGDEKTRNPTPAVTPQPRGAEFHMWNYHSHVFSVGDTFSLAMHLQYKIHEAPFDLLLEWLYVPIDPTCQPMRLYSTCLYHPNAPQCLSHMNSGCTFTSPHLAQRVASTVYQNCEHADNYTAYCLGISHMEPSFGLILHDGGTTLKFVDTPESLSGLYVFVVYFNGHVEAVAYTVVSTVDHFVNAIEERGFPPTAGQPPATTKPKEITPVNPGTSPLIRGGGGSGGGGSGGGGSKAQPDLAEAAATTTENPLQKIDAALAQVDTLRSDLGAVQNRFNSAITNLGNTVNNLTSARSRIEDSDYATEVSNMSRAQILQQAGTSVLAQANQVPQNVLSLLR
On to B1, for which, in test [2], the “IL-8 content in THP-1 supernatant, stimulation at 5 ug/mL” value (shortened to “IL-8 content … at 5 ug/mL”) turned out to be 27.8 ng; the “In vitro relative potency (%), IL-8” value was found to be 142%; the “In vitro relative potency (%), TNF-α” value came out at 104%; the “TNF-α content in THP-1 supernatant, stimulation at 5 ug/mL” value (from here on “TNF-α content … at 5 ug/mL”) was 1000 pg.

B2: ACF fusion protein (gE-N-terminal D0-D1-C-terminal D1-D0, LT2) (other)
chain: SVLRYDDFHIDEDKLDTNSVYEPYYHSDHAESSWVNRGESSRKAYDHNSPYIWPRNDYDGFLENAHEHHGVYNQGRGIDSGERLMQPTQMSAQEDLGDDTGIHVIPTLNGDDRHKIVNVDQRQYGDVFKGDLNPKPQGQRLIEVSVEENHPFTLRAPIQRIYGVRYTETWSFLPSLTCTGDAAPAIQHICLKHTTCFQDVVVDVDCAENTKEDQLAEISYRFQGKKEADQPWIVVNTSTLFDELELDPPEIEPGVLKVLRTEKQYLGVYIWNMRGSDGTSTYATFLVTWKGDEKTRNPTPAVTPQPRGAEFHMWNYHSHVFSVGDTFSLAMHLQYKIHEAPFDLLLEWLYVPIDPTCQPMRLYSTCLYHPNAPQCLSHMNSGCTFTSPHLAQRVASTVYQNCEHADNYTAYCLGISHMEPSFGLILHDGGTTLKFVDTPESLSGLYVFVVYFNGHVEAVAYTVVSTVDHFVNAIEERGFPPTAGQPPATTKPKEITPVNPGTSPLIRGGGGSGGGGSGGGGSAQVINTNSLSLLTQNNLNKSQSALGTAIERLSSGLRINSAKDDAAGQAIANRFTANIKGLTQASRNANDGISIAQTTEGALNEINNNLQRVRELAVQSANSTNSQSDLDSIQAEITQRLNEIDRVSGQTQFNGVKVLAQDNTLTIQVGANDGETIDIDLKQINSQTLGLDTLNVQSPGISGGGGGILDSMGKAQPDLAEAAATTTENPLQKIDAALAQVDTLRSDLGAVQNRFNSAITNLGNTVNNLTSARSRIEDSDYATEVSNMSRAQILQQAGTSVLAQANQVPQNVLSLLR
For the molecule B2, in test [2], the “IL-8 content … at 5 ug/mL” value was found to be 6.41 ng; the “In vitro relative potency (%), IL-8” value was 32.7%; the “In vitro relative potency (%), TNF-α” value amounted to 11.6%; the “TNF-α content … at 5 ug/mL” value came out at 112 pg.

B3: ANF fusion protein (N-terminal D0-D1-C terminal D1-D0-gE, LT2) (other)
chain: AQVINTNSLSLLTQNNLNKSQSALGTAIERLSSGLRINSAKDDAAGQAIANRFTANIKGLTQASRNANDGISIAQTTEGALNEINNNLQRVRELAVQSANSTNSQSDLDSIQAEITQRLNEIDRVSGQTQFNGVKVLAQDNTLTIQVGANDGETIDIDLKQINSQTLGLDTLNVQSPGISGGGGGILDSMGKAQPDLAEAAATTTENPLQKIDAALAQVDTLRSDLGAVQNRFNSAITNLGNTVNNLTSARSRIEDSDYATEVSNMSRAQILQQAGTSVLAQANQVPQNVLSLLRGGGGSGGGGSGGGGSSVLRYDDFHIDEDKLDTNSVYEPYYHSDHAESSWVNRGESSRKAYDHNSPYIWPRNDYDGFLENAHEHHGVYNQGRGIDSGERLMQPTQMSAQEDLGDDTGIHVIPTLNGDDRHKIVNVDQRQYGDVFKGDLNPKPQGQRLIEVSVEENHPFTLRAPIQRIYGVRYTETWSFLPSLTCTGDAAPAIQHICLKHTTCFQDVVVDVDCAENTKEDQLAEISYRFQGKKEADQPWIVVNTSTLFDELELDPPEIEPGVLKVLRTEKQYLGVYIWNMRGSDGTSTYATFLVTWKGDEKTRNPTPAVTPQPRGAEFHMWNYHSHVFSVGDTFSLAMHLQYKIHEAPFDLLLEWLYVPIDPTCQPMRLYSTCLYHPNAPQCLSHMNSGCTFTSPHLAQRVASTVYQNCEHADNYTAYCLGISHMEPSFGLILHDGGTTLKFVDTPESLSGLYVFVVYFNGHVEAVAYTVVSTVDHFVNAIEERGFPPTAGQPPATTKPKEITPVNPGTSPLIR
Consider B3, for which, in test [2], the “IL-8 content … at 5 ug/mL” value came to 10.8 ng; the “In vitro relative potency (%), IL-8” value was found to be 55.3%; the “In vitro relative potency (%), TNF-α” value was 57%; the “TNF-α content … at 5 ug/mL” value worked out at 552 pg.

B4: recombinant VZV gE protein (gE extracellular region), expressed in eukaryotic cells from recombinant adenovirus (other)
chain: SVLRYDDFHIDEDKLDTNSVYEPYYHSDHAESSWVNRGESSRKAYDHNSPYIWPRNDYDGFLENAHEHHGVYNQGRGIDSGERLMQPTQMSAQEDLGDDTGIHVIPTLNGDDRHKIVNVDQRQYGDVFKGDLNPKPQGQRLIEVSVEENHPFTLRAPIQRIYGVRYTETWSFLPSLTCTGDAAPAIQHICLKHTTCFQDVVVDVDCAENTKEDQLAEISYRFQGKKEADQPWIVVNTSTLFDELELDPPEIEPGVLKVLRTEKQYLGVYIWNMRGSDGTSTYATFLVTWKGDEKTRNPTPAVTPQPRGAEFHMWNYHSHVFSVGDTFSLAMHLQYKIHEAPFDLLLEWLYVPIDPTCQPMRLYSTCLYHPNAPQCLSHMNSGCTFTSPHLAQRVASTVYQNCEHADNYTAYCLGISHMEPSFGLILHDGGTTLKFVDTPESLSGLYVFVVYFNGHVEAVAYTVVSTVDHFVNAIEERGFPPTAGQPPATTKPKEITPVNPGTSPLIR
In the case of B4, in test [2], the “IL-8 content … at 5 ug/mL” value stood at 0 ng; the “In vitro relative potency (%), IL-8” value amounted to 0%; the “In vitro relative potency (%), TNF-α” value came out at 0%; the “TNF-α content … at 5 ug/mL” value stood at 0 pg.
